Experimental data from the RNAGym collection of RNA variant scans (doi:10.1093/molbev/msab373).

B1: Azoarcus group I ribozyme (parent)
chain: GUGCCUUGCGCCGGGAAACCACGCAAGGGAUGGUGUCAAAUUCGGCGAAACCUAAGCGCCCGCCCGGGCGUAUGGCAACGCCGAGCCAAGCUUCGGCGCCUGCGCCGAUGAAGGUGUAGAGACUAGACGGCACCCACCUAAGGCAAACGCUAUGGUGAAGGCAUAGUCCAGGGAGUGGCGAAAGUCACACAAACCGG

Variants of: B1
Test: reverse-splicing fitness (ratio to wild type); higher = more active; in vitro selection; Mg2+ level not given
Procedure, shortened: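 An in vitro group I ribozyme library with randomized positions was T7-transcribed and gel-purified. In triplicate, 10 pmol RNA in EPPS pH 7.5 was reacted with 50 pmoles of a 30-nt RNA substrate for 1 h at 37 °C across several added MgCl2 levels (1–48 mM), then stopped with EDTA. Products were reverse transcribed from a substrate-complementary primer, PCR-amplified and sequenced (HiSeq 4000). Fitness is a variant's read proportion after selection over that before, normalised to wild type.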

Row | Variant | reverse-splicing fitness
1 | C82U A111U A120G C169U | 0.0086
2 | C82U A111U A120G C169G | 0.01
3 | C82U A111U A120G C169A | 0.00883
4 | C82U A111U A120G C150G C169A U176A | 0.00906
5 | C82U A111U A120G C150G C169A U176C | 0.00855
6 | C82U A111U A120G C150G C169A U176G | 0.00664
7 | C82U A111U A120U A145C | 0.0211
8 | C82U A111U A120G A145G C169U U176A | 0.0196
9 | C82U A111U A120G A145G C169U U176C | 0.0159
10 | C82U A111U A120G A145G C169U U176G | 0.00458
11 | C82U A111U A120G A145G C150U C169G U176G | 0.00411
12 | C82U A111U A120G A145G C150U C169G U176A | 0.0129
13 | C82U A111U A120G A145G C150U C169G U176C | 0.016
14 | C82U A111U A120G A145U C150U | 0.0114
15 | C82U A111U A120G A145U C150A | 0.00808
16 | C82U A111U A120G A145U C150G | 0.00635
17 | C82U A111U A120G A145U C150A C169U U176C | 0.0141
18 | C82U A111U A120G A145U C150A C169U U176A | 0.0203
19 | C82U A111U A120G A145U C150A C169U U176G | 0.00425
20 | C82U A111U A120U A145C C150A C169A U176G | 0.00264
21 | C82U A111U A120U A145C C150A C169A U176C | 0.00217

Row | Variant | reverse-splicing fitness
22 | C82U A111U A120U A145C C150A C169A U176A | 0.00203
23 | C82U A111U A120G A145U C150U C169A U176C | 0.00959
24 | C82U A111U A120G A145U C150U C169A U176A | 0.0127
25 | C82U A111U A120G A145U C150U C169A U176G | 0.00462
26 | C82U A111U A120G C150G C169U U176C | 0.0119
27 | C82U A111U A120G C150G C169U U176G | 0.00556
28 | C82U A111U A120G C150G C169U U176A | 0.0122
29 | C82U A111U A120G A145U C150G C169A U176C | 0.00812
30 | C82U A111U A120G A145U C150G C169A U176A | 0.00889
31 | C82U A111U A120G A145U C150G C169A U176G | 0.00439
32 | C82U A111U A120G A145G U176C | 0.0197
33 | C82U A111U A120G A145G U176G | 0.00453
34 | C82U A111U A120G A145G U176A | 0.0127
35 | C82U A111U A120G C150U C169U U176A | 0.0214
36 | C82U A111U A120G C150U C169U U176C | 0.0158
37 | C82U A111U A120G C150U C169U U176G | 0.00647
38 | C82U A111U A120G C150U C169G U176C | 0.0168
39 | C82U A111U A120G C150U C169G U176A | 0.0146
40 | C82U A111U A120G C150U C169G U176G | 0.00456
41 | C82U A111U A120G A145U C169U U176G | 0.0035
42 | C82U A111U A120G A145U C169U U176C | 0.0132
